In patent US20130260455A1 (ONCOMED PHARMACEUTICALS, published 2013):

Tests used:
[1] = molecular target: T1, recombinant human Notch1 (EGF10-15) (human, UniProt P46531 372-601); assay: Biacore 2000 SPR; Notch protein amine-coupled to CM5 chip, antibody 1-100 nM injected; Table 3: Biacore 2000, hNotch1 EGF10-15 on CM5 chip, antibody 1-100 nM; fitted KD
T1 construct: The whole entry for hNotch1 is named here; also called hNotch1; h-Notch1
Experimental: The affinities for human and mouse Notch1, Notch2, Notch3, and Notch4 were determined using a Biacore 2000 instrument. Briefly, recombinant human and mouse Notch proteins (EGF10-15 for Notch1, 2, & 4; EGF9-14 for Notch3) were immobilized on a CM5 chip using standard amine based chemistry (NHS/EDC). For hNotch2. EGF1-12 was also tested for binding. Different antibody concentrations (1-100 nM) were injected over the protein surfaces and kinetic data were collected over time. The data was fit using the simultaneous global fit equation to yield dissociation constants (KD, nM) for each Notch (Table 3).

[2] = molecular target: T2, human Notch4, full length, on transfected cells (human, UniProt Q99466 24-2003); assay: FACS on HEK-293 cells transiently transfected with hNotch4 and GFP
T2 construct: also called hNotch4
T2 sequence (Q99466 24-2003 limits assumed): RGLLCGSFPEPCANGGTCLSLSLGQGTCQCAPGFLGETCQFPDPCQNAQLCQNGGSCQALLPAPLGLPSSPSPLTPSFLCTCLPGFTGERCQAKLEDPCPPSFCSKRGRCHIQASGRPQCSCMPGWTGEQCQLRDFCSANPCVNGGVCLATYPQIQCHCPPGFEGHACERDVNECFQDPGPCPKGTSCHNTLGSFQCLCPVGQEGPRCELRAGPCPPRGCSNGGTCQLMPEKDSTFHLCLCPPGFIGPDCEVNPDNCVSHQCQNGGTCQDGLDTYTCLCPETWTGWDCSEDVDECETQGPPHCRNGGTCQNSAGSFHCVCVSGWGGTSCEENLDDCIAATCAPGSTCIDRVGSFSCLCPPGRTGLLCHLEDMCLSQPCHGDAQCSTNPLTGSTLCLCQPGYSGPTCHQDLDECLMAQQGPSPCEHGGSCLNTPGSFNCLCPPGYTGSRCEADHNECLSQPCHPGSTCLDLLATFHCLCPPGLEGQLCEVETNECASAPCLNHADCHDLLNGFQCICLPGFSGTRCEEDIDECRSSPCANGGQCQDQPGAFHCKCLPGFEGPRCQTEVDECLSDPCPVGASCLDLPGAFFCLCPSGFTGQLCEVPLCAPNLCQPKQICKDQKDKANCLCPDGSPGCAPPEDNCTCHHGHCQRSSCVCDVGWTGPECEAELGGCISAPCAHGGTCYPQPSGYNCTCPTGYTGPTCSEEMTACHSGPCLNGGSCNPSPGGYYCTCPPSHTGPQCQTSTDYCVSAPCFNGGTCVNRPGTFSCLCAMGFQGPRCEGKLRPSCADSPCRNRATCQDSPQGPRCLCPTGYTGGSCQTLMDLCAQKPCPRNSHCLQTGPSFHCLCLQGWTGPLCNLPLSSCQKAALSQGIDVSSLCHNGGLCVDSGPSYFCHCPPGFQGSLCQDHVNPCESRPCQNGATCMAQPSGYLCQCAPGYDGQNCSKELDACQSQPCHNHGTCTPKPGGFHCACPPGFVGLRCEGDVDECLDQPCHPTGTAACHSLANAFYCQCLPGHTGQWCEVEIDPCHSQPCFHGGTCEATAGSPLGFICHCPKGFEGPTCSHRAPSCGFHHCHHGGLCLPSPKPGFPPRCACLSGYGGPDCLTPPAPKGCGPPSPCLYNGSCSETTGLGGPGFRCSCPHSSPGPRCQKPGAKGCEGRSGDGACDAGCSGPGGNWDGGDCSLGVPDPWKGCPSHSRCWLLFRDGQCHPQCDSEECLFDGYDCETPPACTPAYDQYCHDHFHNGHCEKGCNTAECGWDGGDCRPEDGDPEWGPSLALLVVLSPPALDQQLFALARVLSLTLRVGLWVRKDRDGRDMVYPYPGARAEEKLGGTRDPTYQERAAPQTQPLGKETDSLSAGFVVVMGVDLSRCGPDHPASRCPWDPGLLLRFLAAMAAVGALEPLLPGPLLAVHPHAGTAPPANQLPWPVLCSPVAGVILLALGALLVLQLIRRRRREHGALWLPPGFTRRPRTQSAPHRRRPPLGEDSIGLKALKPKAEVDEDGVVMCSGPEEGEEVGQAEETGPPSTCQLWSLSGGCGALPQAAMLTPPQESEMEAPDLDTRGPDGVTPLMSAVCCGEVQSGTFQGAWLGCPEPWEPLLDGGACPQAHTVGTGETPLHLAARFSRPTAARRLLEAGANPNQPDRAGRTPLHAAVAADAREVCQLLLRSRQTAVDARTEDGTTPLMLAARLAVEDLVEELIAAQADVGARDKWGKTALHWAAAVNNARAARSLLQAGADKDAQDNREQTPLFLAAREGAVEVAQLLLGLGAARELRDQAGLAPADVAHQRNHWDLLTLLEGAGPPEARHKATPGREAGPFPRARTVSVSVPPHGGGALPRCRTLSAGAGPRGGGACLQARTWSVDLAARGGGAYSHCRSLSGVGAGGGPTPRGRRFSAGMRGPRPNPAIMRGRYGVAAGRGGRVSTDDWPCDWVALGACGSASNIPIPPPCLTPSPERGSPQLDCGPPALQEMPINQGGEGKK
Experimental: The ability of the 59R1 IgG2 antibody to cross-react with other Notch receptors was determined by FACS assay using HEK-293 cells transiently transfected with the human Notch1, Notch2. Notch3 or Notch4 expression plasmid and green fluorescent protein (GFP) as a transfection control. GFP positive cells indicated expression of the transgene. The 59R1 IgG2 was added to the cells at 2 μg/ml and detected by PE-conjugated goat anti-human Fc gamma specific (Jackson Immunochemicals). All Notch constructs were full length.

[3] = molecular target: T3, recombinant mouse Notch2 (EGF10-15) (mouse, UniProt O35516 375-605); assay: Biacore SPR
T3 construct: domain: EGF10-15; also called mNotch2; m-Notch2
T3 sequence (looked up): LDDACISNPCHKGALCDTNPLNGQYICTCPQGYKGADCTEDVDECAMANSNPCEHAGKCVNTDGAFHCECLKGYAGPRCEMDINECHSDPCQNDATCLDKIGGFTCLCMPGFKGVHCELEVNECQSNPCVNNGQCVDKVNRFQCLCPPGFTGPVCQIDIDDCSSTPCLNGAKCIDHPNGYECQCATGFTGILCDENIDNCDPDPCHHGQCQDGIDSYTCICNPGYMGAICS

[4] = molecular target: T4, human Notch2 as used in the Biacore analysis of Table 6 (construct not stated) (human, UniProt Q04721 375-605, limits assumed); assay: Biacore SPR
T4 construct: also called h-Notch2
T4 sequence: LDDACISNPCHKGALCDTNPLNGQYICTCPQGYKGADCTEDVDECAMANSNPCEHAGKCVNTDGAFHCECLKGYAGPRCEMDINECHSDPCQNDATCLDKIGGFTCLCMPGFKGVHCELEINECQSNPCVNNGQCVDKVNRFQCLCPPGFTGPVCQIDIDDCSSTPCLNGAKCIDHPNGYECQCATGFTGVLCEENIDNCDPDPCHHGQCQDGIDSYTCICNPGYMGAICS

[5] = molecular target: T5, recombinant mouse Notch3 (EGF9-14) (mouse, UniProt Q61982 352-581); assay: Biacore SPR
T5 construct: domain: EGF9-14; also called mNotch3; m-Notch3
T5 sequence (looked up): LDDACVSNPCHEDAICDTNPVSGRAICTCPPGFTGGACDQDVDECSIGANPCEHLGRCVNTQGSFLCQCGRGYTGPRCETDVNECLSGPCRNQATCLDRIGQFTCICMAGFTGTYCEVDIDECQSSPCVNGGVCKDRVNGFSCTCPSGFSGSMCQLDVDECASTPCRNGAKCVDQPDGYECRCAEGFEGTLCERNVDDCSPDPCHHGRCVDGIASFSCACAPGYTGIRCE

[6] = molecular target: T6, recombinant human Notch3 (EGF9-14) (human, UniProt Q9UM47 351-580); assay: Biacore SPR
T6 construct: The whole entry for hNotch3 is named here; also called hNotch3; h-Notch3
T6 sequence: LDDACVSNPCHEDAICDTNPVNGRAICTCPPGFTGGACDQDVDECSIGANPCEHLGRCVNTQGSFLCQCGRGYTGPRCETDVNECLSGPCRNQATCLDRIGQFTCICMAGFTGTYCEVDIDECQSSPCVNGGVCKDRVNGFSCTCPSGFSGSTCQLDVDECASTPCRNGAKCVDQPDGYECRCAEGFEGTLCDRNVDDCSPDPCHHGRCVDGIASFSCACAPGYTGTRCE

[7] = molecular target: T7, mutant hNotch2 missing amino acids 375-412 (EGF repeat 10 deleted), on transfected cells (human, UniProt Q04721 26-2471); assay: FACS on HEK-293 cells transiently transfected with human Notch2 Δaa 375-412 (EGF 10) and GFP
T7 construct: also called hNotch2 in the absence of EGF10
Experimental: FACS analysis of HEK-293 cells transiently transfected with the indicated Notch expression plasmid and GFP as a transfection control. GFP positive cells indicate expression of the transgene. Anti-Notch2 (59M70) was added at 20 μg/ml and detected by PE-conjugated goat anti-mouse (Caltag, #3004-4). 59R1 (IgG2) was added to the cells at 2 μg/ml and detected by PE-conjugated goat anti-human Fc gamma specific (Jackson Immunochemicals). Ligand binding was determined by incubation of the cells with human DLL4 extracellular domain (ECD) fused to rabbit IgG constant region at 5 μg/ml and detected by PE-conjugated donkey anti-rabbit.

[8] = molecular target: T8, hNotch2 H385N AL 388-89 SN mutant, full length, on transfected cells (human, UniProt Q04721 26-2471); assay: FACS on transfected cells
T8 construct: also called mutant hNotch2 in which certain EGF10 residues have been mutated to hNotch1 residues
T8 sequence (Q04721 26-2471 H385N/A388S/L389N limits assumed): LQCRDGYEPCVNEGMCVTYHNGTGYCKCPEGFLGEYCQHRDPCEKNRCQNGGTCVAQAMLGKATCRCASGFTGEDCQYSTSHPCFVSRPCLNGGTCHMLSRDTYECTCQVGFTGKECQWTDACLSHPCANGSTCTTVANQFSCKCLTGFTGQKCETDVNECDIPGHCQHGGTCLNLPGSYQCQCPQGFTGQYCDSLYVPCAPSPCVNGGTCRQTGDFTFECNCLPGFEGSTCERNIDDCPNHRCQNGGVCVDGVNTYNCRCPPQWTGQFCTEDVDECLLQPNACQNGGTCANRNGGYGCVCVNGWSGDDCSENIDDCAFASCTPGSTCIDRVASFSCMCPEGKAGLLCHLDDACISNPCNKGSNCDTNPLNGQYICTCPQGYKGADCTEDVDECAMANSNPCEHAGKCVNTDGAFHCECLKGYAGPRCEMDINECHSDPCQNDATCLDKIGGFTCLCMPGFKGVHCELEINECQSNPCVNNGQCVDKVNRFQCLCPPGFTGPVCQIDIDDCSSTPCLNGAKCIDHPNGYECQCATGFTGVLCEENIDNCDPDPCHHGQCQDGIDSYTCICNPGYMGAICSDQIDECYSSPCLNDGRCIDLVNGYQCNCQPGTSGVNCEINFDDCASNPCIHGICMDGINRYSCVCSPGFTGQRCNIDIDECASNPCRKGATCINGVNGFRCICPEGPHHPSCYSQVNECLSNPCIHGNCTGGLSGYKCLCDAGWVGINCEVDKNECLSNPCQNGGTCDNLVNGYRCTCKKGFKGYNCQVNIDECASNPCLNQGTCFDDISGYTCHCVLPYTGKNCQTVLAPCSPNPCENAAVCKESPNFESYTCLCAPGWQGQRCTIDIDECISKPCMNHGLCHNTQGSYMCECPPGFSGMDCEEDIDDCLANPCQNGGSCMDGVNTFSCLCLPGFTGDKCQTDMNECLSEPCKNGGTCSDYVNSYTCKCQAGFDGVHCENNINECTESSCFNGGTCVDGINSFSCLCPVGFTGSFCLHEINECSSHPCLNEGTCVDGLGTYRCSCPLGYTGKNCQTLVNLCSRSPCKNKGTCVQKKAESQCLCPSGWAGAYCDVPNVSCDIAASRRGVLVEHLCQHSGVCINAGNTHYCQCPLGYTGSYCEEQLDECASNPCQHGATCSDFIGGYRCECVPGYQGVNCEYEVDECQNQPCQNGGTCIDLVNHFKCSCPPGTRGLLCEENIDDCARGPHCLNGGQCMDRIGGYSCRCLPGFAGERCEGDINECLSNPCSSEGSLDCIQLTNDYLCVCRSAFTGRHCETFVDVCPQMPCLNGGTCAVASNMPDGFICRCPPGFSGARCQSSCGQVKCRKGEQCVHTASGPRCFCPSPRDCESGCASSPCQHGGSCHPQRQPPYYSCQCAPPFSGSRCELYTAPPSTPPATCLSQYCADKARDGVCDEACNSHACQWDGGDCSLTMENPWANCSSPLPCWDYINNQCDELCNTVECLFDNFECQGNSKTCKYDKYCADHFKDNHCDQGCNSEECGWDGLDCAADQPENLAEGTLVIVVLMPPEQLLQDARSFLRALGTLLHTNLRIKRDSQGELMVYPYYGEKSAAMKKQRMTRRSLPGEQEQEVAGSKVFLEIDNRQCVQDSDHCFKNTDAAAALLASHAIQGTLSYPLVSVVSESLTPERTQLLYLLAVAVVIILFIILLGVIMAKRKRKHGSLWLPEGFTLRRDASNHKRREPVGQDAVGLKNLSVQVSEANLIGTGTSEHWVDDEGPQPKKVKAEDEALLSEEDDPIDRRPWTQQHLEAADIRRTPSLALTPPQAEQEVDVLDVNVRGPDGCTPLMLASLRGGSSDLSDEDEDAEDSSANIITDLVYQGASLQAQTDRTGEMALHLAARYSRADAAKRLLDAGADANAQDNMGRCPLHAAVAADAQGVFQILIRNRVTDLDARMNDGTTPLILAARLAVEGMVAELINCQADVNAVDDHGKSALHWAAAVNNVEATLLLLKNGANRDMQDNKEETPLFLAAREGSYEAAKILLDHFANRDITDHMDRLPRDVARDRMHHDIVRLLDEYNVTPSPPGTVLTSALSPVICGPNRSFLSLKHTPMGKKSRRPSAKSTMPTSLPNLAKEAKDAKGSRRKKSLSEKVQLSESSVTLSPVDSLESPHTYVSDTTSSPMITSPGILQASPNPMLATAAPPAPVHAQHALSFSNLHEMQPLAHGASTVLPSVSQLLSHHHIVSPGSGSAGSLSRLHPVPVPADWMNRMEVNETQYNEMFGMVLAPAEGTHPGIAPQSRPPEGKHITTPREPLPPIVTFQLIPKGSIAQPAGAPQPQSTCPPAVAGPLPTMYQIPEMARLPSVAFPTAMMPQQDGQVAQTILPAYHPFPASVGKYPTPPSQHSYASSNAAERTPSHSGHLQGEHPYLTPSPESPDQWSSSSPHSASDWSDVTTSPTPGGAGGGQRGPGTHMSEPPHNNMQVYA
Experimental: A comparison analysis of the EGF10 regions of human Notch1, Notch2, and Notch4 and the EGF9 region of human Notch3 (the equivalent of EGF10 in the other Notch receptors) was performed to determine likely binding sites for 59R1 (FIG. 14A). As a result of the analysis, several point mutants were created within full-length Notch2, converting residues within EGF10 to the corresponding amino acids in human Notch 1. Also, conversely, point mutations were made in hNotch1 EGF10 converting residues to the corresponding hN2 residues. Mutants in full-length Notch sequences were generated by QuikChange® mutagenesis (Stratagene) and verified by sequencing. Binding to the mutants was determined by FACS analysis (FIGS. 14B and 14C). 59R1 was detected by PE-conjugated goat anti-human Fc gamma specific antibody (Jackson Immunochemicals, #109-116-170). […] The corresponding residues in hNotch3 are histidine 361, alanine 364, and isoleucine 365.

B1: 59R1 IgG2 antibody (antibody, V domains shown)
VH: QVQLVESGGGLVQPGGSLRLSCAASGFTFSSSGMSWVRQAPGKGLEWVSVIASSGSNTYYADSVKGRFTISRDNSKNTLYLQMNSLRAEDTAVYYCARGIFFAIWGQGTLVTVSS
VL: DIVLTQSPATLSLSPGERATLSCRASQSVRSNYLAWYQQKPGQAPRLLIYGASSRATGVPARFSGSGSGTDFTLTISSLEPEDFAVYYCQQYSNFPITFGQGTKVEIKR
notes: Human IgG2/kappa made in CHO cells; also called anti-Notch2/3 antibody 59R1
Which Kd [1] does the source give for B1 here?
The Kd was 86.4 nM.

Does B1 bind [2]?
Result: no binding (tested: 2 ug/ml)

What about the Kd [3] of the same binder?
The Kd was 0.65 nM.

What about the Kd [4] of the same binder?
Its Kd is 0.05 nM.

And the Kd [5]?
The Kd was 0.32 nM.

And the Kd [6]?
The Kd was 0.19 nM.

Does B1 bind [7]?
Result: no binding (tested: 2 ug/ml)

Does B1 bind [8]?
Result: no binding
